To fix the notation:
B1: Proline-serine-threonine phosphatase-interacting protein 1 (Homo sapiens), O43586 (parent)
chain: MMPQLQFKDAFWCRDFTAHTGYEVLLQRLLDGRKMCKDMEELLRQRAQAEERYGKELVQIARKAGGQTEINSLRASFDSLKQQMENVGSSHIQLALTLREELRSLEEFRERQKEQRKKYEAVMDRVQKSKLSLYKKAMESKKTYEQKCRDADDAEQAFERISANGHQKQVEKSQNKARQCKDSATEAERVYRQSIAQLEKVRAEWEQEHRTTCEAFQLQEFDRLTILRNALWVHSNQLSMQCVKDDELYEEVRLTLEGCSIDADIDSFIQAKSTGTEPPAPVPYQNYYDREVTPLTSSPGIQPSCGMIKRFSGLLHGSPKTTSLAASAASTETLTPTPERNEGVYTAIAVQEIQGNPASPAQEYRALYDYTAQNPDELDLSAGDILEVILEGEDGWWTVERNGQRGFVPGSYLEKL
partner: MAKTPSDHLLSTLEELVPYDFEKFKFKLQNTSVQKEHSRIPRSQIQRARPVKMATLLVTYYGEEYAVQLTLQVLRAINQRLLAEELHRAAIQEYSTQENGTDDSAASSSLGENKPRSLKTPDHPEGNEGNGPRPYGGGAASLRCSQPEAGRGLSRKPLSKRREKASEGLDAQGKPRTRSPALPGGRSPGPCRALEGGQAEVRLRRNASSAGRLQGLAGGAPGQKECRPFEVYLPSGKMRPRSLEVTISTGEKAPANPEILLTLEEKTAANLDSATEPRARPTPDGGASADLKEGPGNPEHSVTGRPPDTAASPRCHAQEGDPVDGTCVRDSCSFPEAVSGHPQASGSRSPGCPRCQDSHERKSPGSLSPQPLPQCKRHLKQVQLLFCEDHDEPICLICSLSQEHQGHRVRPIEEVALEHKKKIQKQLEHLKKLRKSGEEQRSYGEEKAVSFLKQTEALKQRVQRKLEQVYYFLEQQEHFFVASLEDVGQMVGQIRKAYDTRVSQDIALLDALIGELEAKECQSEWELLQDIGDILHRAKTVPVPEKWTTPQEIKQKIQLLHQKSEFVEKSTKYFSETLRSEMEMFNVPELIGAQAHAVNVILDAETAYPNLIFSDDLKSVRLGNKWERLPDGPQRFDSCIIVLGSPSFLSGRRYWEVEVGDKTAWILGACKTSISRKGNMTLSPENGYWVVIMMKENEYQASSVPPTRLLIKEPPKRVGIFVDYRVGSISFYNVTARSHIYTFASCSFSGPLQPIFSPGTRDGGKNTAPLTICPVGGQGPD

The variants in the assay derive from B1. To be noted: with mefv_human MEFV.
With E250Q, the “effect of a mutation on the interaction” value was “increasing interaction strength”.

Turning to A230T, the “effect of a mutation on the interaction” value is on record as “increasing interaction strength”.

(Values after IntAct's records for PubMed 17964261.)
